Data reported in the DeepSol protein solubility set.

Assay: soluble on expression in E. coli; label from the status in PepcDB or PDB records

| Sequence | soluble on expression in E. coli |
| --- | --- |
| MKFGPASPKDAIGGVTVHTLRQGPLVLKKGTTIGPAEVEALERAGIKDVVVVRMEEGDVSEDVAAASIALAVGGEGIHVERAFTGRANLFAARPGVLVIDRAAVDRINNIDEAITFATLTAYKPVVEGEMVGTVKIIPFGVEGALRDAAVKAAGRDVLKIAPYAIKRVGVVSTLLPGLSSKVIDKTLRVTAERLAPSGAGIIAERRVQHDEHALSAAIKELLALGAELVIVFGASAIADRRDVIPAAVTGIGGEIEHFGMPVDPGNLLLIARAEGVPVLGAPGCARSPVENGFDWVLMRLLAGIKVTRAELMGMGVGGLLMEIVTRPQPRARPEIEGNSQVAAIVLAAGRSTRMGGPNKLLAELDGKKLVRIATEQALASKASEVIVVTGHQTELVEQALQGLKVKFARNPDFAGGIASSVKAGIAAVPEACDGAVVCLGDMPLIDAGLIDRLIDSFAPDRGNLIVVPVSEGRRGNPVLWSRRFFRELMTLDGDVGARHLIAKHTEAVAEVPVDGEGAFLDIDTPQALEAARRGLEHHHHHH | not soluble |
| MKFGWVNVIGDNWEEKKKIVTTALESSIPVVVAEPEDIEKIKELGNIKVASHSLDADIVLVNKNDNIEFLKEAKNLGKETAIYIPIESKEDEEFASEVARFGFVDNIILEGRDWTIIPLENLIADLFHRDVKIVASVNSVDEAKVAYEILEKGTDGVLLNPKNLEDIKELSKLIEEMNKEKVALDVATVTKVEPIGSGDRVCIDTCSLMKIGEGMLIGSYSRALFLVHSETVENPYVATRPFRVNAGPVHAYILCPGNKTKYLSELKAGDKVLIVDKDGNTREAIVGRVKIERRPLVLIEAEYKGDIIRTILQNAETIRLVNEKGEPISVVDLKPGDKVLIKPEEYARHFGMAIKETIIEKLEHHHHHH | soluble |
| MKFKYLSTPLLFSALLFSACSSVNVGANLKSLIKETTDQDLDLSESVSTSEGKKNLISSLKKSYETNPSKTASVLLNAWKQSVENGQIESSETNWTNWKFP | soluble |
| MKFNCPLIVVNDINISRKFYEEVLCQKIKYDFGENVVYEGDFSLQLKSHFANMIDIDEKSIKFQSNGFELYFEEDNIEAFLNKLKQNKGINYIHSLLEHPWGQRVIRFYDPDMHIIEVGESMEGVIKRFFNEGMSIDEITKRTQHPLEFVKRVLHYKLTLEHHHHHH | soluble |
| MKFNKSTMEANGDTSACNGYSDKQRKDVRVWCDGCYDMVHFGHANSLRQAKALGDKVIVGIHTDEEITKHKGPPVFTEEERVKMVKGIKWVDEVVLGAPYVTTLDVLDQNNCDFCVHGDDITMTAEGVDTYHLVKSANRYKEVKRTAGVSTTD | not soluble |
| MKFTEGKVKVVANDVKNLTQALEGYIQKAFFEGKDICASGGLVLKTTNKLAQKLSELKEILPQVKVISDEVKAKAEEIIKKAEETLQKGLEIKKRVKEFEAATNVYKKNPSEENKKRVETALNNLKYPEGAKLTLEDYVKNCNPYKKYLQKRVEQKA | not soluble |
| MKFTIMSKGDQSSDTLASTMKEYLLDFGFIMDEKEPDIVISVGGDGTLLYAFHRYYNRLDETAFVGVHTGHLGFYADWLPTEVEKLVIAIAKTPFQVVEYPLLEVIIRYVNGSKESQYLAMNEATVKSAEGTLVTEVEIRGEYFETFRGDGLCISTPSGSTAYNKALGGAIIHPSIEAIQIAEMASINNRVFRTVGSPLVLPKHHTCVLKPAAGMNLQITVDHLTMVHQDVKSIQYRVANEKVRFVRFRPFPFWKRVRDSFVADKLEHHHHHH | not soluble |
| MKFVNFDEYKQLVDYFRNRLNPNYSSPTMLFIISITGMRASEAFGLVWDDIDFNNNTIKCRRTWNYRNKVGGFKKPKTDAGIRDIVIDDESMQLLKDFREQQKTLFESLGIKPIHDFVCYHPYRKIITLSALQNTLDHALKKLNISTPLTVHGLRHTHASVLLYHGVDIMTVSKRLGHASVAITQQTYIHIIKLEHHHHHH | not soluble |
| MKGDHYSPNWPQLALSKKQSVNWVCERCGVQCLKPGEGKGLLKEERYRFRMAVHHCDYDPSNNSPSNLMALCSLCHLYYHRRQQGNISLGQLSLEFYLEHHHHHH | soluble |
| MKGMRGPGESRDTAMAVEQDIFDAVVMADERFHGEGYQEGYEEGSSLGIVEGKRYGMVHGAKIGSEIGCYRGFALAWKCLLHSGAGEKDSRKMKVVEALIALLQDFPYDDPTYEKLHEDLDRIRGKFRQLCSLLNVQPDFKVTPGGSGLAF | soluble |
| MKGPNLTEISKKITDSNAVLLAVKEVEALLSSIDEIAAKAIGKKIHQNNGLDTENNHNGSLLAGAYAISTLIKQKLDGLKNEGLKEKIDAAKKCSETFTNKLKEKHTDLGKEGVTDADAKEAILKTNGTKTKGAEELGKLFESVEVLSKAAKEMLANSVKELTSPVVAESPKKP | soluble |
| MKGQLAFDLPIRPALSREDFFISPANALALASLDGWRDWPRGKMVLVGPRGSGKTHLAHIWAAQAEARLIPAEALARADLPALAADGAVAVEDAERLGGDRAAEEALFHLHNLMLERAGALLITAAGPPRDWGLGLADLKSRMQAASVTRLEAPDDALLSAMLVKLFTDRQIAVPGMLVPWLVARMDRSCEAARALVAALDARSLAERRPISRQMAAELLGLTATDLEHHHHHH | not soluble |
| MKGRDVVLGLLMQKELSGYDIKIVFEDVFTHFFDGSFGMIYPTLRQLENEGKIKKEVVMQEGKPNKKMYFITDEGREEFYQYMQTPVEKDVLRSDFLMRMYFGNYSDDVTIKKWIKDEIERKEAYIADLRLKYEKWRVGITFVEEISLDVGIASYSAQVETLKKKLEELEAKENNKTEE | soluble |
| MKHILIIGATGQIGSELTMELRRRYGNTNVVAGYIQGAEPKGELKESGPSAVVDVTNGEMIESVVKEYHIDTIYNLAALLSVVAESKPKLAWKIGIDGLWNVLEVAREQGCAVFTPSSIGSFGASTPHTQTPQDTIQRPRTMYGVTKVTTELLSDYYFNKYGVDTRAVRFPGIISNVTPPGGGTTDYAVDIYYSAVRGEKFVCPIKEGTLMDMMYMPDALNAAIMLMEADPTKLIHRNAFNIASMSFDPETIFHAIKKHVPAFEMIYDVDPLKQRIADSWPDSLDDTCAREEWGWKPAYDLESMTVDMLEKLREKLKK | not soluble |
| MKHQHQHQHQHQHQQPLNEEFRPEMLQGKKVIVTGASKGIGREMAYHLAKMGAHVVVTARSKETLQKVVSHCLELGAASAHYIAGTMEDMTFAEQFVAQAGKLMGGLDMLILNHITNTSLNLFHDDIHHVRKSMEVNFLSYVVLTVAALPMLKQSNGSIVVVSSLAGKVAYPMVAAYSASKFALDGFFSSIRKEYSVSRVNVSITLCVLGLIDTETAMKAVSGIVHMQAAPKEECALEIIKGGALRQEEVYYDSSLWTTLLIRNPSRKILEFLYSTSYNMDRFINK | soluble |
| MKIAIIGAGNMGGSIARGLAKGSLIADSDIIVSNPSAGKLEKLKEEFPGISTTLSNTEAATGADVVILAVKPWFVESVMRELKLKSKQTLVSVAAGISFEELAHFVIAPEMPMFRLIPNTAISELESMTLIAARNTNDEQNLFMLRLFNEMGMAMLIPEDKIAATTALTSCGIAYVLKYIQAAMQAGIEMGIRPKDAMEMVAQSVKGAAALILNNDTHPSVEIDKVTTPGGITIKGINELEHNGFTSAVIKAMKASK | soluble |
| MKIALIGITGRVGSRLADELLRRGHHVTGIARDPASVRPQPNLTARQGDAAVPEDLAPILAGHDAVISAARFVSLDAKPLLAAIRQAGVPRLLVVGGAGSLQVAPGVALIDTPEFPDAYKPEARAGVVFLDTLRREQEVEWTFLSPSALFEPGERTGEFRLGADLLLADDEGKSWISMEDYAIALVDELETPRHARRRFTVGYLEHHHHHH | not soluble |
| MKIAVLGATGRAGSAIVAEARRRGHEVLAVVRDPQKAADRLGATVATLVKEPLVLTEADLDSVDAVVDALSVPWGSGRGYLHLDFATHLVSLLRNSDTLAVFILGSASLAMPGADHPMILDFPESAASQPWYDGALYQYYEYQFLQMNANVNWIGISPSEAFPSGPATSYVAGKDTLLVGEDGQSHITTGNMALAILDQLEHPTAIRDRIVVRDADLEHHHHHH | soluble |
| MKIAVVGGGIVGLSTAFELSSRGHSVHVFDPNPASGASHFAGGMLAPAAEVQFQQDPLFPLMKRAGKLWPDMVRRVAQRTNLPTGYRTEGTLVVAADRADAEHLKQLRATQEAAGMDVRPITTRQARGLEPALGPRLSAAVHIPNDTQVAPRVFLTALLDALDDCGVGVIKEKITDLEPLYQQFD | not soluble |
| MKIEIKVQIKDGKNSPNLKPGGYIVSASKSFSIDYSKAVAITRNPEIYKNIGIPYIWISKVEGENAISPTNLPKLLHTMISLSKKHPGVTFIIDSVEYLALENGFESTFKFLISAKDHLMLNNSSLVLIIEDKAFKPNELALLKKEFKEISLEHHHHHH | soluble |
| MKIHTTEALMKAEISRRSLMKTSALGSLALASSAFTLPFSQMVRAAEAPVEEKAVWSSCTVNCGSRCLLRLHVKDDTVYWVESDTTGDDVYGNHQVRACLRGRSIRRRMNHPDRLKYPMKRVGKRGEGKFERISWDEALDTISDNLRRILKDYGNEAVHVLYGTGVDGGNITNSNVPYRLMNSCGGFLSRYGSYSTAQISAAMSYMFGANDGNSPDDIANTKLVVMFGNNPAETRMSGGGVTYYVEQARERSNARMIVIDPRYNDTAAGREDEWLPIRPGTDGALACAIAWVLITENMVDQPFLDKYCVGYDEKTLPANAPRNAHYKAYILGEGPDGIAKTPEWAAKITSIPAEKIIQLAREIGSAKPAYICQGWGPQRHSNGEQTSRAIAMLSVLTGNVGINGGNSGVREGSWDLGVEWFPMLENPVKTQISVFTWTDAIDHGTEMTATRDGVRGKEKLDVPIKFLWCYASNTLINQHGDINHTHEVLQDDSKCEMIVGIDHFMTASAKYCDILLPDLMPTEQEDLISHESAGNMGYVILAQPATSAKFERKPIYWMLSEVAKRLGPDVYQTFTEGRSQHEWIKYLHAKTKERNPEMPDYEEMKTTGIFKKKCPEEHYVAFRAFREDPQANPLKTPSGKIEIYSERLAKIADTWELKKDEIIHPLPAYTPGFDGWDDPLRKTYPLQLTGFHYKARTHSSYGNIDVLQQACPQEVWINPIDAQARGIRHGDTVRVFNNNGEMLIAAKVTPRILPGVTAIGQGAWLKADMFGDRVDHGGSINILTSHRPSPLAKGNPSHSNLVQIEKV | not soluble |
| MKIIARNKKALFDYSIIERFEAGIVLKGSEVVALRAGRANLKDSFVRIIKNEIFLLNSHISLLHTTHSFYKHEERGARKLLMHRKQIDKLLGKVSIEGYTIVALDLYFNTKNKVKATLALAKGKNLHDKRETLKKKQADLEARAAMKNYK | not soluble |
| MKIITCYKCVPDEQDIAINNADGTLDFSKADSKISQYDLNAIEAACQLKQQLGDAQVVAMSVGGKALTNAKGRKDVLSRGPDELIVVIDDQFEQALPQHTATALAAAAQKSGFDLLICGDGSSDLYAQQVGLLVGEALNIPAINGVSKILSLTDSTLTVERELEDEVETLSIPLPAVIAVSTDINTPQIPSMKAILGAAKKPVQVWSPADIGLNSVPAYSAQQVAAPKQRERQRVVIEGDGEEQIAAFVENLRKII | not soluble |
| MKIKEMVTSEMPRERLLSHGAKSLSNTELLAILINTGRKGFSSIDISNELLKSASNLNELKKSSINDLIKVKGIGLQKAITLKAAFELGERMGRRAENNRIKITQPSDVADYMIPTMKDLTQEHFVILLLNSKNVVIKETCVFKGTLNSSIVHPREIFSIAVRENANAIIAVHNHPSGDVLTIV | not soluble |
| MKILTQSLPNSSAAYLQGYLRENTDSSVTYPTVIIVPGGSYTHIPERQAEDLALAWVARGYQAFFLRYSFISEKTPLLPNPVIELAQSVAAIHAHATTWHVDLRRLAVAGFSVGGHITALFNDWWSEADFNQQAHTTPEQLKVQAVILGYPVISPDLGFPTDAATLATWSTTPKKIAADQHVTAANAPTFIWVTANDPLVPVQNALAYAQASLTHGVDTELHVFHNGPHGLALANSVTAWKPGTDLPHVAHWLDLATEWLQDLKLEHHHHHH | soluble |
